The record followed here is publication PMC10049731, “Legumain Functions as a Transient TrkB Sheddase” (International Journal of Molecular Sciences, 2023).

In data set [1] the target is T1, legumain-processed TrkB ectodomain (rat, UniProt Q63604-1 29-391, glycosylated; labelled with NT-647 RED dye in the MST).
T1 construct: TrkB, rat, ectodomain construct Ser29-Glu428 cut by legumain in the membrane linker; dominant cleavage site after Asn391, minor sites after Asp385 and Asn389, so the C-terminus is a mixture; C-terminal limit is that of the dominant cleavage site (Asn391); the His6 tag is lost with the cut fragment; also called legumain-processed TrkB ECD; processed TrkB ECD; source: HEK293S, purified (Ni-NTA), …
T1 sequence (Q63604 29-391): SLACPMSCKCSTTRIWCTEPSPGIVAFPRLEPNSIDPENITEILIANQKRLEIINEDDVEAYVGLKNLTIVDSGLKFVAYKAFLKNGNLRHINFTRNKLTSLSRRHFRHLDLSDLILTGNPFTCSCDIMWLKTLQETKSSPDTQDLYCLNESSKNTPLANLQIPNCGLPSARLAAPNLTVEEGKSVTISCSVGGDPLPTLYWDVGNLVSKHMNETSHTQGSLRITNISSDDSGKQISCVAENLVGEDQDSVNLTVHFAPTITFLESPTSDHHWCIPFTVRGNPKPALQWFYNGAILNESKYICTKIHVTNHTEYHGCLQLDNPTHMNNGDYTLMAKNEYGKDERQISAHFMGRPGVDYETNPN
Nature of the data set: MST; in solution; TrkB variant (intact or legumain-processed) labelled with NT-647 RED and kept constant, unlabelled BDNF (20.5 uM) in a 16-step 1:2 dilution series; 1x PBS pH 7.4, 0.005% Tween 20; 10 min at RT; Monolith NT.115. Conditions: both partners purified.

Data set [2] concerns the target T2, TrkB ectodomain (Ser29-Glu428) (rat, UniProt Q63604-1 29-428, several glycosylation forms; labelled with NT-647 RED dye in the MST set-up with labelled TrkB).
T2 construct: Secreted by way of the pHLsec vector; also called TrkB ECD; full-length ectodomain; source: HEK293S, transfected (pHLsec), secreted into medium, purified (Ni-NTA); not shown: His6, C-terminal, kept
The data set is described as above. The note with it: both partners purified.

Data set [3] concerns the target TrkB Ig2 domain (His283-Glu428) (rat). Described as above.
For data set [4], the target named is legumain-processed TrkB Ig2 domain (rat). The data set is described as above.
Data set [5] concerns the molecule itself. Nature of the data set: dynamic light scattering; BDNF alone; Figure S4C; conditions not shown.
For data set [6], the target named is TrkB Ig2 domain (His283-Glu428) (rat). As to the kind of experiment: MST; in solution; TrkB ECD or Ig2 with proBDNF; which partner was labelled is not told; MST buffer 1x PBS pH 7.4, 0.005% Tween 20.
Data set [7] addresses T2, TrkB ectodomain (Ser29-Glu428). The description is as above. Conditions: both partners purified.

T2 sequence (Q63604 29-428): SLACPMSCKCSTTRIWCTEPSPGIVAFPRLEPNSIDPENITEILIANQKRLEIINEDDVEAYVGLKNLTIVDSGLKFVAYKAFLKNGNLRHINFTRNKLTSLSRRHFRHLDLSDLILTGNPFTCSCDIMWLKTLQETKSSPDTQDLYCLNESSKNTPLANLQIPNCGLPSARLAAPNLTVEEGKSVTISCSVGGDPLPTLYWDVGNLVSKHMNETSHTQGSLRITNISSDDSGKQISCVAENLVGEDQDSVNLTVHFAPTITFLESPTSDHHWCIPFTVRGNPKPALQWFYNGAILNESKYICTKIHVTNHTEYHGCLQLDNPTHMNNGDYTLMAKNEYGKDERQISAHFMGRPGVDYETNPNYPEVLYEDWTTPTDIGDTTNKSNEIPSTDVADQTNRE

B1: Brain-derived neurotrophic factor (BDNF), mature (His131-Arg249) (ligand, rat, UniProt P23363 131-249, looked up)
chain: HSDPARRGELSVCDSISEWVTAADKKTAVDMSGGTVTVLEKVPVSKGQLKQYFYETKCNPMGYTKEGCRGIDKRHWNSQCRTTQSYVRALTMDSKKRIGWRFIRIDTSCVCTLTIKRGR
modifications: disulfides Cys143-Cys210, Cys188-Cys239, Cys199-Cys241; labelled with NT-647 RED dye in the MST set-up with labelled BDNF
notes: mature BDNF, cut from proBDNF by furin, His131-Arg249; The species rests on the legend 'Preparation of rat TrkB and proBDNF'; the printed residue numbers fit a 249-residue precursor; also called mature BDNF
For the molecule B1, the dissociation constant Kd (usually the equilibrium constant for the complex coming apart) in data set [1] is 188 ± 82 nM; in data set [2], 106 ± 44 nM; in data set [3], 67 nM; in data set [4], 300 nM. The stoichiometry N (in general, the number of molecules, sites or subunits per partner or assembly) in data set [5] was determined as 2.

B2: proBDNF (ligand, rat, UniProt P23363 19-249, looked up)
chain: APMKEANVHGQGNLAYPAVRTHGTLESVNGPRAGSRGLTTTSLADTFEHVIEELLDEDQKVRPNEENHKDADLYTSRVMLSSQVPLEPPLLFLLEEYKNYLDAANMSMRVRRHSDPARRGELSVCDSISEWVTAADKKTAVDMSGGTVTVLEKVPVSKGQLKQYFYETKCNPMGYTKEGCRGIDKRHWNSQCRTTQSYVRALTMDSKKRIGWRFIRIDTSCVCTLTIKRGR
notes: proBDNF, the pro-form of brain-derived neurotrophic factor; also called pro-form of BDNF; source: E. coli Rosetta 2 (DE3), inclusion bodies, folded in vitro, purified (SP-sepharose)
On to B2, for which the Kd amounted to 441 nM in data set [6] and 306 nM in data set [7].
